From the Human Domainome abundance scans (Beltran et al. 2025) come the findings set out here.

± gives the uncertainty stated by the source.

To fix the notation:
B1: Transcription elongation regulator 1-like protein, residues 448 to 504; numbered along this chain, Q5VWI1 (parent)
chain: LPLEERVTHFRDMLLERGVSAFSTWEKELHKIVFDPRYLLLNSEERKQIFEQFVKTR

Variants of B1 are the subject of this series. The series is described as follows: abundance fitness (aPCA) (normalised: wild type 0, dead -1); higher = more abundant; growth selection in yeast, the domain comes from the species named. Particulars: Homo sapiens.
Consider LPLEERVTHFRDMLLEVGVSAFSTWEKELHKIVFDPRYLLLNSEERKQIFEQFVKTR, for which the abundance fitness is -0.434 ± 0.32.

Consider LPLEERVTHFRDMLLEEGVSAFSTWEKELHKIVFDPRYLLLNSEERKQIFEQFVKTR, for which the abundance fitness is -0.479 ± 0.43.

With LPLEERVTHFRDMLLEMGVSAFSTWEKELHKIVFDPRYLLLNSEERKQIFEQFVKTR, the abundance fitness is -0.237 ± 0.27.

On to LPLEERVTHFRDMLLEGGVSAFSTWEKELHKIVFDPRYLLLNSEERKQIFEQFVKTR, for which the abundance fitness was -0.978 ± 0.25.

For the variant LPLEERVTHFRDMLLEHGVSAFSTWEKELHKIVFDPRYLLLNSEERKQIFEQFVKTR, the abundance fitness was -0.02 ± 0.13.

On to LPLEERVTHFRDMLLENGVSAFSTWEKELHKIVFDPRYLLLNSEERKQIFEQFVKTR, for which the abundance fitness is -0.218 ± 0.32.

Turning to LPLEERVTHFRDMLLEQGVSAFSTWEKELHKIVFDPRYLLLNSEERKQIFEQFVKTR, the abundance fitness is -0.287 ± 0.42.

As to LPLEERVTHFRDMLLEFGVSAFSTWEKELHKIVFDPRYLLLNSEERKQIFEQFVKTR, the abundance fitness is -0.368 ± 0.47.

Regarding LPLEERVTHFRDMLLELGVSAFSTWEKELHKIVFDPRYLLLNSEERKQIFEQFVKTR, the abundance fitness is -0.312 ± 0.23.

Regarding LPLEERVTHFRDMLLEAGVSAFSTWEKELHKIVFDPRYLLLNSEERKQIFEQFVKTR, the abundance fitness was -0.465 ± 0.39.

Regarding LPLEERVTHFRDMLLEKGVSAFSTWEKELHKIVFDPRYLLLNSEERKQIFEQFVKTR, the abundance fitness worked out at 0.64 ± 0.17.

Regarding LPLEERVTHFRDMLLECGVSAFSTWEKELHKIVFDPRYLLLNSEERKQIFEQFVKTR, the abundance fitness was -0.151 ± 0.17.

As for LPLEERVTHFRDMLLEPGVSAFSTWEKELHKIVFDPRYLLLNSEERKQIFEQFVKTR, the abundance fitness was -0.249 ± 0.37.

In the case of LPLEERVTHFRDMLLEIGVSAFSTWEKELHKIVFDPRYLLLNSEERKQIFEQFVKTR, the abundance fitness was -0.853 ± 0.23.

LPLEERVTHFRDMLLKRGVSAFSTWEKELHKIVFDPRYLLLNSEERKQIFEQFVKTR: the abundance fitness worked out at 0.226 ± 0.24.

Consider LPLEERVTHFRDMLLSRGVSAFSTWEKELHKIVFDPRYLLLNSEERKQIFEQFVKTR, for which the abundance fitness is -0.797 ± 0.17.

As for LPLEERVTHFRDMLLVRGVSAFSTWEKELHKIVFDPRYLLLNSEERKQIFEQFVKTR, the abundance fitness was -0.666 ± 0.24.

For the variant LPLEERVTHFRDMLLFRGVSAFSTWEKELHKIVFDPRYLLLNSEERKQIFEQFVKTR, the abundance fitness was -0.568 ± 0.24.

LPLEERVTHFRDMLLWRGVSAFSTWEKELHKIVFDPRYLLLNSEERKQIFEQFVKTR: the abundance fitness was -0.646 ± 0.3.

As to LPLEERVTHFRDMLLRRGVSAFSTWEKELHKIVFDPRYLLLNSEERKQIFEQFVKTR, the abundance fitness is -1.09 ± 0.35.

For LPLEERVTHFRDMLLTRGVSAFSTWEKELHKIVFDPRYLLLNSEERKQIFEQFVKTR, the abundance fitness is -0.851 ± 0.16.

Regarding LPLEERVTHFRDMLLMRGVSAFSTWEKELHKIVFDPRYLLLNSEERKQIFEQFVKTR, the abundance fitness was -0.438 ± 0.16.

Take LPLEERVTHFRDMLLARGVSAFSTWEKELHKIVFDPRYLLLNSEERKQIFEQFVKTR: the abundance fitness is -0.46 ± 0.27.

LPLEERVTHFRDMLLNRGVSAFSTWEKELHKIVFDPRYLLLNSEERKQIFEQFVKTR: the abundance fitness is -0.657 ± 0.36.

With LPLEERVTHFRDMLLQRGVSAFSTWEKELHKIVFDPRYLLLNSEERKQIFEQFVKTR, the abundance fitness amounted to 0.176 ± 0.12.

For LPLEERVTHFRDMLLGRGVSAFSTWEKELHKIVFDPRYLLLNSEERKQIFEQFVKTR, the abundance fitness was -0.868 ± 0.34.

LPLEERVTHFRDMLLLRGVSAFSTWEKELHKIVFDPRYLLLNSEERKQIFEQFVKTR: the abundance fitness is -1.01 ± 0.49.

Take LPLEERVTHFRDMLLYRGVSAFSTWEKELHKIVFDPRYLLLNSEERKQIFEQFVKTR: the abundance fitness was -0.882 ± 0.24.

In the case of LPLEERVTHFRDMLLCRGVSAFSTWEKELHKIVFDPRYLLLNSEERKQIFEQFVKTR, the abundance fitness is -0.632 ± 0.22.

Turning to LPLEERVTHFRDMLLIRGVSAFSTWEKELHKIVFDPRYLLLNSEERKQIFEQFVKTR, the abundance fitness was -0.976 ± 0.31.

On to LPLEERVTHFRDMLLERAVSAFSTWEKELHKIVFDPRYLLLNSEERKQIFEQFVKTR, for which the abundance fitness was -0.588 ± 0.12.

With LPLEERVTHFRDMLLERQVSAFSTWEKELHKIVFDPRYLLLNSEERKQIFEQFVKTR, the abundance fitness was -0.454 ± 0.31.

Consider LPLEERVTHFRDMLLERSVSAFSTWEKELHKIVFDPRYLLLNSEERKQIFEQFVKTR, for which the abundance fitness is -0.33 ± 0.14.

Consider LPLEERVTHFRDMLLERMVSAFSTWEKELHKIVFDPRYLLLNSEERKQIFEQFVKTR, for which the abundance fitness was -0.96 ± 0.36.

For the variant LPLEERVTHFRDMLLERWVSAFSTWEKELHKIVFDPRYLLLNSEERKQIFEQFVKTR, the abundance fitness was -0.746 ± 0.25.

As for LPLEERVTHFRDMLLEREVSAFSTWEKELHKIVFDPRYLLLNSEERKQIFEQFVKTR, the abundance fitness was 0.071 ± 0.12.

With LPLEERVTHFRDMLLERKVSAFSTWEKELHKIVFDPRYLLLNSEERKQIFEQFVKTR, the abundance fitness was found to be 0.719 ± 0.15.

As for LPLEERVTHFRDMLLERTVSAFSTWEKELHKIVFDPRYLLLNSEERKQIFEQFVKTR, the abundance fitness came to 0.098 ± 0.24.

As for LPLEERVTHFRDMLLERRVSAFSTWEKELHKIVFDPRYLLLNSEERKQIFEQFVKTR, the abundance fitness is -0.316 ± 0.11.

In the case of LPLEERVTHFRDMLLERLVSAFSTWEKELHKIVFDPRYLLLNSEERKQIFEQFVKTR, the abundance fitness was -0.545 ± 0.15.

On to LPLEERVTHFRDMLLERCVSAFSTWEKELHKIVFDPRYLLLNSEERKQIFEQFVKTR, for which the abundance fitness was -0.714 ± 0.44.

In the case of LPLEERVTHFRDMLLERVVSAFSTWEKELHKIVFDPRYLLLNSEERKQIFEQFVKTR, the abundance fitness is -0.612 ± 0.26.

Turning to LPLEERVTHFRDMLVERGVSAFSTWEKELHKIVFDPRYLLLNSEERKQIFEQFVKTR, the abundance fitness was -0.207 ± 0.15.

Regarding LPLEERVTHFRDMLHERGVSAFSTWEKELHKIVFDPRYLLLNSEERKQIFEQFVKTR, the abundance fitness is -0.352 ± 0.37.

Take LPLEERVTHFRDMLRERGVSAFSTWEKELHKIVFDPRYLLLNSEERKQIFEQFVKTR: the abundance fitness amounted to 0.139 ± 0.088.

In the case of LPLEERVTHFRDMLIERGVSAFSTWEKELHKIVFDPRYLLLNSEERKQIFEQFVKTR, the abundance fitness is -0.315 ± 0.32.
